Target: the molecule itself
Test: cryo-EM structure; FAS (0.3 mg/ml, buffer 100 mM sodium phosphate pH 6.5) incubated with 1 mM NADPH and 1 mM malonyl-CoA for 5 min, on hydrophilized graphene-coated Quantifoil grids; D3 symmetry applied; 3.1 Å

B1: yeast fatty acid synthase subunit α (FAS2) (enzyme, S. cerevisiae)
chain: MKPEVEQELAHILLTELLAYQFASPVRWIETQDVFLKDFNTERVVEIGPSPTLAGMAQRTLKNKYESYDAALSLHREILCYSKDAKEIYYTPDPSELAAKEEPAKEEAPAPTPAASAPAPAAAAPAPVAAAAPAAAAAEIADEPVKASLLLHVLVAHKLKKSLDSIPMSKTIKDLVGGKSTVQNEILGDLGKEFGTTPEKPEETPLEELAETFQDTFSGALGKQSSSLLSRLISSKMPGGFTITVARKYLQTRWGLPSGRQDGVLLVALSNEPAARLGSEADAKAFLDSMAQKYASIVGVDLSSAASASGAAGAGAAAGAAMIDAGALEEITKDHKVLARQQLQVLARYLKMDLDNGERKFLKEKDTVAELQAQLDYLNAELGEFFVNGVATSFSRKKARTFDSSWNWAKQSLLSLYFEIIHGVLKNVDREVVSEAINIMNRSNDALIKFMEYHISNTDETKGENYQLVKTLGEQLIENCKQVLDVDPVYKDVAKPTGPKTAIDKNGNITYSEEPREKVRKLSQYVQEMALGGPITKESQPTIEEDLTRVYKAISAQADKQDISSSTRVEFEKLYSDLMKFLESSKEIDPSQTTQLAGMDVEDALDKDSTKEVASLPNKSTISKTVSSTIPRETIPFLHLRKKTPAGDWKYDRQLSSLFLDGLEKAAFNGVTFKDKYVLITGAGKGSIGAEVLQGLLQGGAKVVVTTSRFSKQVTDYYQSIYAKYGAKGSTLIVVPFNQGSKQDVEALIEFIYDTEKNGGLGWDLDAIIPFAAIPEQGIELEHIDSKSEFAHRIMLTNILRMMGCVKKQKSARGIETRPAQVILPMSPNHGTFGGDGMYSESKLSLETLFNRWHSESWANQLTVCGAIIGWTRGTGLMSANNIIAEGIEKMGVRTFSQKEMAFNLLGLLTPEVVELCQKSPVMADLNGGLQFVPELKEFTAKLRKELVETSEVRKAVSIETALEHKVVNGNSADAAYAQVEIQPRANIQLDFPELKPYKQVKQIAPAELEGLLDLERVIVVTGFAEVGPWGSARTRWEMEAFGEFSLEGCVEMAWIMGFISYHNGNLKGRPYTGWVDSKTKEPVDDKDVKAKYETSILEHSGIRLIEPELFNGYNPEKKEMIQEVIVEEDLEPFEASKETAEQFKHQHGDKVDIFEIPETGEYSVKLLKGATLYIPKALRFDRLVAGQIPTGWNAKTYGISDDIISQVDPITLFVLVSVVEAFIASGITDPYEMYKYVHVSEVGNCSGSGMGGVSALRGMFKDRFKDEPVQNDILQESFINTMSAWVNMLLISSSGPIKTPVGACATSVESVDIGVETILSGKARICIVGGYDDFQEEGSFEFGNMKATSNTLEEFEHGRTPAEMSRPATTTRNGFMEAQGAGIQIIMQADLALKMGVPIYGIVAMAATATDKIGRSVPAPGKGILTTAREHHSSVKYASPNLNMKYRKRQLVTREAQIKDWVENELEALKLEAEEIPSEDQNEFLLERTREIHNEAESQLRAAQQQWGNDFYKRDPRIAPLRGALATYGLTIDDLGVASFHGTSTKANDKNESATINEMMKHLGRSEGNPVIGVFQKFLTGHPKGAAGAWMMNGALQILNSGIIPGNRNADNVDKILEQFEYVLYPSKTLKTDGVRAVSITSFGFGQKGGQAIVVHPDYLYGAITEDRYNEYVAKVSAREKSAYKFFHNGMIYNKLFVSKEHAPYTDELEEDVYLDPLARVSKDKKSGSLTFNSKNIQSKDSYINANTIETAKMIENMTKEKVSNGGVGVDVELITSINVENDTFIERNFTPQEIEYCSAQPSVQSSFAGTWSAKEAVFKSLGVKSLGGGAALKDIEIVRVNKNAPAVELHGNAKKAAEEAGVTDVKVSISHDDLQAVAVAVSTKK
modifications: additional density at Ser1440 suggesting phosphorylation
notes: fatty acid synthase subunit α, S. cerevisiae, encoded by FAS2 on a pRS shuttle vector; holds the PPT domain at its C-terminus; this follows from DM4 holding the PPT domain, which it places in subunit α
binding result: binds

— article PMC7055384, “The resolution revolution in cryoEM requires high-quality sample preparation: a rapid pipeline to a high-resolution map of yeast fatty acid synthase” (IUCrJ, 2020)
